Changes are numbered by the printed parent chain.
B1: anti-CD66c chimeric antibody 8F5 (antibody, human IgG1, V domains shown)
VH: EVQLQQSGPELVKPGASMKISCKASGYSFTDYTMNWVKQSHGKNLEWIGLINPFHGGTVSNQRFKVKATLTVDVSSNTAYMELLSLTSDDSAVYYCVRGDPVRHYYALAYWGQGTSVTVSS
VL: DIQMTQSPASLSASVGETVTITCGASENVYGTLNWYQRKQGKSPQLLIYGATNLADGMSSRFSGSGSGRQYSLKISSLHPDDVATYYCQNVLSAPYTFGGGTKLEII
notes: also called chimeric 8F5; chi 8F5
B2: recombinant humanized anti-CD66c antibody Protein ID 3058 (Vk8 + VH11) (antibody, human IgG1, V domains shown)
VH: QVQLVQSGAEVKKPGASVKISCKASGYSFTDYTMHWVKQAPGQNLEWIGLINPFGGSTSYAQKFKGRVTMTRDTSTNTAYMELSRLRSDDTAVYYCVRGDPVRHYYALAYWGQGTLVTVSS
VL: DIQMTQSPSTLSASVGDRVTITCRASENVYGTLNWYQRKPGKAPKLLIYGATNLADGMPSRFSGSGSGTEYTLTISSLQPDDFATYYCQNVLSAPYTFGGGTKLEIK
notes: also called hu 3058; #86
B3: recombinant humanized anti-CD66c antibody Protein ID 3007 (Vk7 + VH6) (antibody, human IgG1, V domains shown)
VH: QVQLVQSGAEVKKPGASMKISCKASGYSFTDYTMNWVKQAPGQNLEWIGLINPFHGGTVSNQRFKVKATLTVDVSTNTAYMELSRLRSDDTAVYYCVRGDPVRHYYALAYWGQGTLVTVSS
VL: B2 VL with R24G, M58V
notes: also called hu 3007; #43
B4: recombinant humanized anti-CD66c antibody Protein ID 3043 (Vk8 + VH6) (antibody, V domains shown)
VH: B3 VH
VL: B2 VL
notes: also called hu 3043; #71
B5: recombinant humanized anti-CD66c antibody Protein ID 2938 (Vk5 + VH7) (antibody, human IgG1, V domains shown)
VH: B3 VH with K38R, N44G
VL: B2 VL with R24G, N34A, M58V, T69R
notes: also called hu 2938

target: T1, Antigen CD66c (CEACAM6; Sino Biological, Inc.) (UniProt P40199 35-320); experiment: ELISA, CEACAM6 coated 100 ng/well, antibody at 370.37 ng/ml
T1 construct: Bought antigen, coated on the ELISA plate; construct not described; also called CECACAM6 (CD66c) antigen; CD66c antigen
T1 sequence (looked up): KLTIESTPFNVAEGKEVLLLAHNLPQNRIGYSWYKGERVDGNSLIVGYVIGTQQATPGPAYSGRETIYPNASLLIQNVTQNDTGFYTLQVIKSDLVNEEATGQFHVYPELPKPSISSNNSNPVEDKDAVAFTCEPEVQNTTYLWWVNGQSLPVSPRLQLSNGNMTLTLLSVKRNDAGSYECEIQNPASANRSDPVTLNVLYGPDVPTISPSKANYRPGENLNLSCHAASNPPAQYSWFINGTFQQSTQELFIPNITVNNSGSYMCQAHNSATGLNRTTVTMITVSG
Protocol: (§1) Antigen CD66c (CEACAM6; Sino Biological, Inc.) and CEACAM1 antigen (Sino Biological, Inc.) were coated on a 96-well plate at a rate of 100 ng per well and then blocked. The primary antibody was diluted 3-fold from 10 ug/ml and bound at 37° C. for 1 hour. […] goat anti-Human Ig-HRP conjugate (Jackson ImmunoResearch) as a secondary antibody was diluted 1:10,000 and incubated at 37° C. for 30 minutes. The washing was carried out at three times between each step, and the TMB reaction was performed, stopped with 1N H₂SO₄ solution at the same amount of TMB solution (100 ul) and then OD value was measured at 450 nm.
(§2) As a result of the experiment, the binding affinities to CD66c antigen of the five kinds of recombinant humanized antibodies selected from among 96 kinds of recombinant humanized antibodies are shown in FIG. 4a, Table 12, FIG. 4b and Table 13. FIG. 4a and Table 12 show the binding capacity of the antibodies to CECACAM6 CD66c) antigen, and FIG. 4b and Table 13 are the results for the CEACAM1 (CD66a) antigen.

Binder	OD 450 nm
B1	3.3 OD 450 nm
B2	2.8 OD 450 nm
B3	3.16 OD 450 nm
B4	2.92 OD 450 nm
B5	3.08 OD 450 nm

target: T2, CEACAM1 antigen (Sino Biological, Inc.) (UniProt P13688 35-428); experiment: ELISA, CEACAM1 coated 100 ng/well, antibody at 1111.11 ng/ml
T2 construct: Bought antigen, coated on the ELISA plate; construct not described; also called CEACAM1 (CD66a) antigen; CD66a
T2 sequence (looked up): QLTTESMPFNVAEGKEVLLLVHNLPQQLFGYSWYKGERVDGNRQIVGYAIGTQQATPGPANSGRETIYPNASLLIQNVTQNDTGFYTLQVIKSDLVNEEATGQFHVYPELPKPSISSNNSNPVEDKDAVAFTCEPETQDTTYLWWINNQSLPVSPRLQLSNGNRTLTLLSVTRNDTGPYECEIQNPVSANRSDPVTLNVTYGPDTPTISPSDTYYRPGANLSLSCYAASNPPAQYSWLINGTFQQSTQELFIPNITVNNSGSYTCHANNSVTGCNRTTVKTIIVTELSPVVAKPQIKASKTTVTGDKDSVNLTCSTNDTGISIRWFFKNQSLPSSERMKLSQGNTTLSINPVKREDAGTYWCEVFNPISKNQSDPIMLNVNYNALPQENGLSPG
Protocol: as §1

Binder	OD 450 nm
B1	1.21 OD 450 nm
B2	0.19 OD 450 nm
B3	1.06 OD 450 nm
B4	1.17 OD 450 nm
B5	0.21 OD 450 nm

target: T2, CEACAM1 antigen (Sino Biological, Inc.); experiment: ELISA, CEACAM1 coated 100 ng/well, antibody at 1.52 ng/ml
Protocol: as §1

Binder	OD 450 nm
B1	0.16 OD 450 nm
B2	0.05 OD 450 nm
B3	0.18 OD 450 nm
B4	0.16 OD 450 nm
B5	0.05 OD 450 nm

target: T1, Antigen CD66c (CEACAM6; Sino …); experiment: ELISA, CEACAM6 coated 100 ng/well, antibody at 10000.00 ng/ml
Protocol: as §1, §2

Binder	OD 450 nm
B1	3.17 OD 450 nm
B2	2.87 OD 450 nm
B3	3.37 OD 450 nm
B4	2.73 OD 450 nm
B5	3.43 OD 450 nm

target: T1, Antigen CD66c (CEACAM6; Sino …); experiment: ELISA, CEACAM6 coated 100 ng/well, antibody at 1.52 ng/ml
Protocol: as §1, §2

Binder	OD 450 nm
B1	0.53 OD 450 nm
B2	0.53 OD 450 nm
B3	0.79 OD 450 nm
B4	0.7 OD 450 nm
B5	0.48 OD 450 nm

target: T2, CEACAM1 antigen (Sino Biological, Inc.); experiment: ELISA, CEACAM1 coated 100 ng/well, antibody at 13.72 ng/ml
Protocol: as §1

Binder	OD 450 nm
B1	0.51 OD 450 nm
B2	0.05 OD 450 nm
B3	0.46 OD 450 nm
B4	0.43 OD 450 nm
B5	0.06 OD 450 nm

target: T1, Antigen CD66c (CEACAM6; Sino …); experiment: ELISA, CEACAM6 coated 100 ng/well, antibody at 4.57 ng/ml
Protocol: as §1, §2

Binder	OD 450 nm
B1	0.8 OD 450 nm
B2	0.74 OD 450 nm
B3	1.02 OD 450 nm
B4	0.91 OD 450 nm
B5	0.65 OD 450 nm

target: T2, CEACAM1 antigen (Sino Biological, Inc.); experiment: ELISA, CEACAM1 coated 100 ng/well, antibody at 0.17 ng/ml
Protocol: as §1, §2

Binder	OD 450 nm
B1	0.08 OD 450 nm
B2	0.04 OD 450 nm
B3	0.09 OD 450 nm
B4	0.08 OD 450 nm
B5	0.04 OD 450 nm

target: T2, CEACAM1 antigen (Sino Biological, Inc.); experiment: ELISA, CEACAM1 coated 100 ng/well, antibody at 10000.00 ng/ml
Protocol: as §1

Binder	OD 450 nm
B1	1.21 OD 450 nm
B2	0.42 OD 450 nm
B3	1.01 OD 450 nm
B4	0.91 OD 450 nm
B5	0.32 OD 450 nm

target: T1, Antigen CD66c (CEACAM6; Sino …); experiment: ELISA, CEACAM6 coated 100 ng/well, antibody at 0.17 ng/ml
Protocol: as §1, §2

Binder	OD 450 nm
B1	0.4 OD 450 nm
B2	0.37 OD 450 nm
B3	0.53 OD 450 nm
B4	0.41 OD 450 nm
B5	0.3 OD 450 nm

target: T1, Antigen CD66c (CEACAM6; Sino …); experiment: ELISA, CEACAM6 coated 100 ng/well, antibody at 1111.11 ng/ml
Protocol: as §1, §2

Binder	OD 450 nm
B1	3.3 OD 450 nm
B2	3.19 OD 450 nm
B3	3.23 OD 450 nm
B4	2.74 OD 450 nm
B5	3.16 OD 450 nm

target: T2, CEACAM1 antigen (Sino Biological, Inc.); experiment: ELISA, CEACAM1 coated 100 ng/well, antibody at 3333.33 ng/ml
Protocol: as §1

Binder	OD 450 nm
B1	1.24 OD 450 nm
B2	0.31 OD 450 nm
B3	1.15 OD 450 nm
B4	1.22 OD 450 nm
B5	0.27 OD 450 nm

target: T1, Antigen CD66c (CEACAM6; Sino …); experiment: ELISA, CEACAM6 coated 100 ng/well, antibody at 13.72 ng/ml
Protocol: as §1, §2

Binder	OD 450 nm
B1	1.15 OD 450 nm
B2	1.06 OD 450 nm
B3	1.64 OD 450 nm
B4	1.37 OD 450 nm
B5	1.15 OD 450 nm

target: T2, CEACAM1 antigen (Sino Biological, Inc.); experiment: ELISA, CEACAM1 coated 100 ng/well, antibody at 0.51 ng/ml
Protocol: as §1

Binder	OD 450 nm
B1	0.1 OD 450 nm
B2	0.04 OD 450 nm
B3	0.11 OD 450 nm
B4	0.1 OD 450 nm
B5	0.05 OD 450 nm

target: T1, Antigen CD66c (CEACAM6; Sino …); experiment: ELISA, CEACAM6 coated 100 ng/well, antibody at 0.51 ng/ml
Protocol: as §1, §2

Binder	OD 450 nm
B1	0.41 OD 450 nm
B2	0.38 OD 450 nm
B3	0.64 OD 450 nm
B4	0.49 OD 450 nm
B5	0.36 OD 450 nm

From patent publication US20220119518A1 (KUMHO HT, published 2022)
